# Positions count from the first letter of the chain named. Read-outs that look alike come from different tables or passages of the source.
# B1: XAB4 (antibody, human IgG1, kappa, V domains shown)
# VH: EVQLVESGGDLVQPGGSLRLSCAASGFTFSSYWMSWVRQAPGKGLEWVANIKQDGSEKYYVDSVKGRFTISRDNAKNSLYLQMNSLRAEDTAVYYCARDRGSLYYWGQGTLVTVSS
# VL: AIQLTQSPSSLSASVGDRVTITCRPSQGINWELAWYQQKPGKAPKLLIYDASSLEQGVPSRFSGSGSGTDFTLTISSLQPEDFATYYCQQFNSYPLTFGGGTKVEIKR
# B2: XAB2 (antibody, human IgG1, kappa, V domains shown)
# VH: B1 VH
# VL: B1 VL with G28V, N30I, W31S, E32A, G66V, N92D
# notes: full IgG
# B3: XAB1 (antibody, human IgG1, kappa, V domains shown)
# VH: B1 VH
# VL: B1 VL with N30I, W31S, E32A, Q56N
# Experiments:
# [1] = biological target: BSA (UniProt P02769); assay: ELISA, BSA wells, control antibody 1 µg/ml (XAB1 set)
# Sequence of BSA (P02769 25-607 limits assumed): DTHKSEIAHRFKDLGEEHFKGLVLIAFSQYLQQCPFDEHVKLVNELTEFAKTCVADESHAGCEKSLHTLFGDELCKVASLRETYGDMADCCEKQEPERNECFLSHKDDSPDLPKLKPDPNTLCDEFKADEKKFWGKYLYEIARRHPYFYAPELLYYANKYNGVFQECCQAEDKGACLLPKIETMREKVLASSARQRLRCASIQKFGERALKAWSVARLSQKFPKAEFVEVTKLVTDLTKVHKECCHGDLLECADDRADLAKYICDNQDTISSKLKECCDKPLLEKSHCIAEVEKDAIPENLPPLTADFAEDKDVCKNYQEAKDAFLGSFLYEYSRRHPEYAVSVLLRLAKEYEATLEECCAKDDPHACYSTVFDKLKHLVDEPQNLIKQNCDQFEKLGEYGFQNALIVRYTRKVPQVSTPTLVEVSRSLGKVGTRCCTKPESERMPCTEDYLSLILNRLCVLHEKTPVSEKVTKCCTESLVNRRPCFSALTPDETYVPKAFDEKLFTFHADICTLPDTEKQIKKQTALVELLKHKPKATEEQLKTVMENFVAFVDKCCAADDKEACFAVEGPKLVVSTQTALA
# [2] = biological target: BSA (UniProt P02769); assay: ELISA, BSA wells, control antibody 5 µg/ml (XAB4 set)
# [3] = biological target: T1, recombinant huIL-17F (human, UniProt Q96PD4 31-163); assay: cell-based or functional assay
# T1 sequence: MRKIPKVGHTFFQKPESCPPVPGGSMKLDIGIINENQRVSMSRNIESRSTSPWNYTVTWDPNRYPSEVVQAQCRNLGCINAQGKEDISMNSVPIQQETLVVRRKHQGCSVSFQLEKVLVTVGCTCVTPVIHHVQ
# [4] = biological target: T2, recombinant huIL-17A/F heterodimer (human, UniProt Q16552 24-155; Q96PD4 31-163, limits assumed); assay: cell-based or functional assay
# T2 sequence (looked up) 1: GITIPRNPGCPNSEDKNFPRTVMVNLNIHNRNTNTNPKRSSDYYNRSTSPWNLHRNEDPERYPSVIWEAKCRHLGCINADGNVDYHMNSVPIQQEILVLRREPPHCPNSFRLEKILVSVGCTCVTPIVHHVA
# T2 sequence (looked up) 2: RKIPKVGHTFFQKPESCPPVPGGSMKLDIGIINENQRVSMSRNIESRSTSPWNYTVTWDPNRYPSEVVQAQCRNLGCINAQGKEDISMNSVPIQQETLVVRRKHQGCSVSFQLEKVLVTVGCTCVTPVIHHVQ
# [5] = biological target: recombinant mIL-17A/F (R&D Systems Cat#5390-IL) (mouse) (UniProt Q62386); assay: cell-based or functional assay
# [6] = biological target: T3, recombinant huIL-17A (SEQ ID NO: 76) (human, UniProt Q16552 24-155, limits assumed); assay: cell-based or functional assay
# T3 sequence: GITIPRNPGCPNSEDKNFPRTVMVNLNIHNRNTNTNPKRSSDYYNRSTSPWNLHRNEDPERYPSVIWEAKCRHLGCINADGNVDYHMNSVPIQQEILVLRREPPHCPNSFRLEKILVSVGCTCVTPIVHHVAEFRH
# [7] = biological target: T4, recombinant mIL-17A (mouse, UniProt Q62386 26-158); assay: cell-based or functional assay
# T4 sequence: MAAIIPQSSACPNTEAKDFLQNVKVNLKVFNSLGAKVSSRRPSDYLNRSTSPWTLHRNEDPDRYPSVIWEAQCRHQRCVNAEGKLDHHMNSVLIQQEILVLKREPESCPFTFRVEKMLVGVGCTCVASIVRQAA
# [8] = biological target: T5, rat IL-17A (rat, UniProt Q61453 18-150); assay: cell-based or functional assay
# T5 sequence: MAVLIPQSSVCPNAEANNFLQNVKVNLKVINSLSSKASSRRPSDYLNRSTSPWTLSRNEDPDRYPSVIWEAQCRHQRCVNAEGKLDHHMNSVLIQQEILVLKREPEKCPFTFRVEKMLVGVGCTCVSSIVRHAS
# [9] = biological target: T6, recombinant mIL-17F (SEQ ID NO: 84) (mouse, UniProt Q7TNI7 29-161); assay: cell-based or functional assay
# T6 sequence: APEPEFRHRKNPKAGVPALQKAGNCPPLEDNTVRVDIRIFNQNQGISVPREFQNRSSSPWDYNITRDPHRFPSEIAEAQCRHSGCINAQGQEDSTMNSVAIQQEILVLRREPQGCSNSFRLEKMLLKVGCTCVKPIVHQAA
# [10] = biological target: T1, recombinant huIL-17F; assay: cell-based or functional assay; remark: listed apart in the source
# [11] = biological target: T2, recombinant huIL-17A/F heterodimer; assay: cell-based or functional assay; remark: listed apart in the source
# [12] = biological target: T3, recombinant huIL-17A (SEQ ID NO: 76); assay: cell-based or functional assay; remark: listed apart in the source
# [13] = biological target: T7, human IL-17A (construct not specified) (human, UniProt Q16552 24-155, limits assumed); assay: cell-based or functional assay
# T7 sequence: T3 sequence
# [14] = biological target: T4, recombinant mIL-17A; assay: cell-based or functional assay; remark: listed apart in the source
# [15] = biological target: T3, recombinant huIL-17A (SEQ ID NO: 76); assay: cell-based or functional assay; remark: listed apart in the source
# [16] = biological target: T3, recombinant huIL-17A (SEQ ID NO: 76); assay: cell-based or functional assay; remark: listed apart in the source
# [17] = biological target: T1, recombinant huIL-17F; assay: cell-based or functional assay; remark: listed apart in the source
# [18] = biological target: T2, recombinant huIL-17A/F heterodimer; assay: cell-based or functional assay; remark: listed apart in the source
# [19] = biological target: T3, recombinant huIL-17A (SEQ ID NO: 76); assay: cell-based or functional assay; remark: listed apart in the source
# [20] = biological target: T8, recombinant mIL-17A/F (R&D Systems Cat#5390-IL) (mouse, UniProt Q62386 26-158; Q7TNI7 29-161, limits assumed); assay: cell-based or functional assay
# T8 sequence (looked up) 1: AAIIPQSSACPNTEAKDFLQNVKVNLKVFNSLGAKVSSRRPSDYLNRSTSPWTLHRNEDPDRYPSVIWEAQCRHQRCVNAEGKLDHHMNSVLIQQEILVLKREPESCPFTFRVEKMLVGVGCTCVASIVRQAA
# T8 sequence (looked up) 2: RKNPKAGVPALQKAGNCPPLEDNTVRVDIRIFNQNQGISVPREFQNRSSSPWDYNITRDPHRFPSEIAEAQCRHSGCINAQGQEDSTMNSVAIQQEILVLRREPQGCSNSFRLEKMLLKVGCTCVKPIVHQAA
# [21] = biological target: T4, recombinant mIL-17A; assay: cell-based or functional assay; remark: listed apart in the source
# [22] = biological target: T9, cynomolgus IL-17A (cynomolgus monkey, UniProt Q16552 24-155 (human entry), limits assumed); assay: affinity determination (Tables 18-21)
# T9 construct: also called cynoIL-17A; cyno IL-17A
# T9 chain: T2 sequence (looked up) 1 with T3A, P8S, N34S, I77V, N78K, P104R
# [23] = biological target: T5, rat IL-17A; assay: affinity determination (Tables 18-21)
# [24] = biological target: T10, recombinant huIL-20 (Novartis) (human) (UniProt Q9NYY1); assay: ELISA, coated cytokine, antibody 10 µg/ml
# T10 sequence (looked up): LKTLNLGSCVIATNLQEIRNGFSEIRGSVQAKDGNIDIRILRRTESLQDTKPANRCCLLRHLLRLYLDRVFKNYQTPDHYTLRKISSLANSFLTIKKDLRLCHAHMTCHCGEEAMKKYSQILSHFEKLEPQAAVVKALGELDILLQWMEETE
Molecule,"IC50, mouse KC secretion by CMT-93 cells; rIL-17A (1 nM) [8] [nM]","IC50, mouse KC secretion by CMT-93 cells; mIL-17F (30 nM) [9] [µM]","IC50, huIL-6 secretion by BJ cells; rhuIL-17F (10 nM) + rhuTNF-α (6 pM) [10] [nM]","IC50, huIL-6 secretion by BJ cells; rhuIL-17A/F (300 pM) + rhuTNF-α (6 pM) [11] [nM]","EC50, T = 0 weeks [13] [ng/mL]","EC50, T = 4 weeks at pH 8, 40° C. (forced deamidation) [13] [ng/ml]","IC50, KC secretion by CMT-93 cells; mIL-17A (0.15 nM) [14] [nM]","IC50, huIL-6 secretion by BJ cells; rhuIL-17A (0.5 nM) [15] [nM]","IC50, huGROα secretion by BJ cells; rhuIL-17A (0.5 nM) [16] [nM]","IC50, hu-GRO-alpha secretion by BJ cells; IL-17F (10 nM) + TNF-α (6 pM) [17] [nM]","IC50, hu-GRO-alpha secretion by BJ cells; IL-17A/F (300 pM) + TNF-α (6 pM) [18] [nM]","IC50, hu-GRO-alpha secretion by BJ cells; IL-17A (30 pM) + TNF-α (6 pM) [19] [nM]","IC50, mouse KC secretion by CMT-93 cells; mIL-17A/F (3 nM) [20] [nM]","IC50, mouse KC secretion by CMT-93 cells; mIL-17A (1 nM) [21] [nM]",further results
Control antibody (BSA wells of Table 23; not identified),,,,,,,,,,,,,,,O.D. [1]: 0.149 O.D.; O.D. [2]: 0.01 O.D.
"Simulect® (1.1% solution, Batch C0011; 831179) (antibody)",> 3000,> 3,,,,,,,,,,,,,"IC50, hu-GRO-alpha secretion by BJ cells; IL-17F (10 nM) + TNF-α (6 pM) [3]: > 3000 nM; IC50, hu-GRO-alpha secretion by BJ cells; IL-17F (30 nM) [3]: > 1000 nM; IC50, huIL-6 secretion by BJ cells; rhuIL-17F (10 nM) + rhuTNF-α (6 pM) [3]: > 3000 nM; IC50, huIL-6 secretion by BJ cells; rhuIL-17F (30 nM) [3]: > 1000 nM; IC50, hu-GRO-alpha secretion by BJ cells; IL-17A/F (300 pM) + TNF-α (6 pM) [4]: > 3000 nM; IC50, hu-GRO-alpha secretion by BJ cells; IL-17A/F (3 nM) [4]: > 100 nM; IC50, huIL-6 secretion by BJ cells; rhuIL-17A/F (300 pM) + rhuTNF-α (6 pM) [4]: > 3000 nM; IC50, huIL-6 secretion by BJ cells; rhuIL-17A/F (3 nM) [4]: > 100 nM; IC50, mouse KC secretion by CMT-93 cells; mIL-17A/F (3 nM) [5]: > 3000 nM; IC50, hu-GRO-alpha secretion by BJ cells; IL-17A (30 pM) + TNF-α (6 pM) [6]: > 3000 nM; IC50, hu-GRO-alpha secretion by BJ cells; IL-17A (1 nM) [6]: > 100 nM; IC50, huIL-6 secretion by BJ cells; rhuIL-17A (30 pM) + rhuTNF-α (6 pM) [6]: > 3000 nM; IC50, huIL-6 secretion by BJ cells; rhuIL-17A (1 nM) [6]: > 100 nM; IC50, mouse KC secretion by CMT-93 cells; mIL-17A (1 nM) [7]: > 3000 nM"
B1,6.7,> 10,> 3000,0.17,48,47,7,0.55,0.44,> 3000,0.1,0.007,10.3,13.8,"IC50, huIL-6 secretion by BJ cells; rhuIL-17F (30 nM) [10]: > 3000 nM; IC50, huIL-6 secretion by BJ cells; rhuIL-17A/F (3 nM) [11]: 1.68 nM; IC50, huIL-6 secretion by BJ cells; rhuIL-17A (1 nM) [12]: 0.63 nM; IC50, hu-GRO-alpha secretion by BJ cells; IL-17F (30 nM) [17]: > 3000 nM; IC50, hu-GRO-alpha secretion by BJ cells; IL-17A/F (3 nM) [18]: 1.11 nM; IC50, hu-GRO-alpha secretion by BJ cells; IL-17A (1 nM) [19]: 0.35 nM"
B2,,,,,45,47,20.9,0.64,0.4,,,,,,binding result [22]: binds; binding result [23]: binds
B3,467,> 10,> 3000,3.83,,,128,4.97,1.39,> 3000,6.22,0.72,> 1000,539,"IC50, huIL-6 secretion by BJ cells; rhuIL-17A (30 pM) + rhuTNF-α (6 pM) [12]: 0.47 nM; O.D. [24]: 0.335 O.D."

# Source: patent publication US20170291939A1 (Novartis, published 2017)
